Results taken from article PMC3168947 (Molecular cell, 2011).
“And” between values parts separate entries of the source, which are not always exact repeats. Equal entries are not always repeated. Where two headings read alike, the source gives them in different places. No end group written: not given here.

What was measured:
[1] = molecular target: T1, ClpA6 (hexameric ClpA unfoldase, stabilised by ATPγS) (E. coli, UniProt P0ABH9 1-758); assay: fluorescence polarisation
T1 sequence (looked up): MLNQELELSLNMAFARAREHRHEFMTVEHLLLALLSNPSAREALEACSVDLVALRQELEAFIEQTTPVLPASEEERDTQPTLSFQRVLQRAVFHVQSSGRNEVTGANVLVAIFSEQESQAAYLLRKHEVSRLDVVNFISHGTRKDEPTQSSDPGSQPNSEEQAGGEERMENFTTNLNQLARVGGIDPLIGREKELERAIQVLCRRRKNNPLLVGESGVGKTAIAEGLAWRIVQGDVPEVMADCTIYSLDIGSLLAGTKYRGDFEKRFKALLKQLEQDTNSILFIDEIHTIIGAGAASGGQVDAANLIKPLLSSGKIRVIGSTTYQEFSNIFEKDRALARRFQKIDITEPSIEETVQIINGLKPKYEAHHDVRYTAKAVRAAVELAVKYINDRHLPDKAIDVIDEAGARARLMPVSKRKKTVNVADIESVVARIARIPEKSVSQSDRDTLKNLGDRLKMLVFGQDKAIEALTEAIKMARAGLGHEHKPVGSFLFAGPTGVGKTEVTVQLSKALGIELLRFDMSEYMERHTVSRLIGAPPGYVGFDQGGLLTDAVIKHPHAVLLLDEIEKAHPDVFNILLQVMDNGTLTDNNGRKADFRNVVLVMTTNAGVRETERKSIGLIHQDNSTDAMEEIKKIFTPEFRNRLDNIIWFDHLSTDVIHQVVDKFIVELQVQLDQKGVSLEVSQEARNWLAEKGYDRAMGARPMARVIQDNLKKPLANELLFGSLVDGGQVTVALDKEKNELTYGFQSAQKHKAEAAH

[2] = molecular target: T1, ClpA6 (hexameric ClpA unfoldase, …); assay: fluorescence polarisation; remark: listed apart in the source
[3] = molecular target: ClpS*^F variant with NTE deletion (E. coli); assay: fluorescence polarisation
ClpAP = assay: ClpAPS degradation of YLFVQELA-GFP; format: biochemical, E. coli; conditions: Fig. 4B
[4] = molecular target: T2, fluorescent N-end-rule peptide LLYVQRDSKEC-fl; assay: fluorescence polarisation
T2 peptide: LLYVQRDSKEC(fluorescein maleimide)

crystal structure = molecular target: the molecule itself; assay: crystal structure

B1: ClpS*^F bound to the N-end-rule peptide LLYVQRDSKEC (complex, E. coli)
chain: MGKTNDWLDFDQLAEEKVRDALKPPSMYKVILVNDDYTPMEFVIDVLQKFFSYDVERATQLMLAVHYQGKAIVGVFTAEVAETKVAMVNKYARENCHPLLSTLEKA
peptide: LLYVQRDSKEC
modifications: fluorescein maleimide on the single cysteine
Q: B1 was tested. Which Kd [1] did it give?
A: The Kd was < 20 nM and 20 nM.

B2: ^H66AClpS*^F (natural protein, E. coli, UniProt P0A8Q6 1-106, looked up)
chain: MGKTNDWLDFDQLAEEKVRDALKPPSMYKVILVNDDYTPMEFVIDVLQKFFSYDVERATQLMLAVAYQGKAIVGVFTAEVAETKVAMVNKYARENCHPLLSTLEKA
modifications: fluorescein maleimide on the single cysteine
Q: With B2 as the molecule, how does the Kd [2] read?
A: Its Kd is 345 ± 3 nM.

B3: ClpA6 (hexameric ClpA unfoldase, stabilised by ATPγS) (enzyme)
chain: MLNQELELSLNMAFARAREHRHEFMTVEHLLLALLSNPSAREALEACSVDLVALRQELEAFIEQTTPVLPASEEERDTQPTLSFQRVLQRAVFHVQSSGRNEVTGANVLVAIFSEQESQAAYLLRKHEVSRLDVVNFISHGTRKDEPTQSSDPGSQPNSEEQAGGEERMENFTTNLNQLARVGGIDPLIGREKELERAIQVLCRRRKNNPLLVGESGVGKTAIAEGLAWRIVQGDVPEVMADCTIYSLDIGSLLAGTKYRGDFEKRFKALLKQLEQDTNSILFIDEIHTIIGAGAASGGQVDAANLIKPLLSSGKIRVIGSTTYQEFSNIFEKDRALARRFQKIDITEPSIEETVQIINGLKPKYEAHHDVRYTAKAVRAAVELAVKYINDRHLPDKAIDVIDEAGARARLMPVSKRKKTVNVADIESVVARIARIPEKSVSQSDRDTLKNLGDRLKMLVFGQDKAIEALTEAIKMARAGLGHEHKPVGSFLFAGPTGVGKTEVTVQLSKALGIELLRFDMSEYMERHTVSRLIGAPPGYVGFDQGGLLTDAVIKHPHAVLLLDEIEKAHPDVFNILLQVMDNGTLTDNNGRKADFRNVVLVMTTNAGVRETERKSIGLIHQDNSTDAMEEIKKIFTPEFRNRLDNIIWFDHLSTDVIHQVVDKFIVELQVQLDQKGVSLEVSQEARNWLAEKGYDRAMGARPMARVIQDNLKKPLANELLFGSLVDGGQVTVALDKEKNELTYGFQSAQKHKAEAAH
Q: B3 was tested. Which fold reduction of affinity against ClpS*^F [3] did it give?
A: Its fold reduction of affinity against ClpS*^F is 10 fold.

B4: *A14 ClpS with ClpA6 (complex, E. coli)
chain 1: MLNQELELSLNMAFARAREHRHEFMTVEHLLLALLSNPSAREALEACSVDLVALRQELEAFIEQTTPVLPASEEERDTQPTLSFQRVLQRAVFHVQSSGRNEVTGANVLVAIFSEQESQAAYLLRKHEVSRLDVVNFISHGTRKDEPTQSSDPGSQPNSEEQAGGEERMENFTTNLNQLARVGGIDPLIGREKELERAIQVLCRRRKNNPLLVGESGVGKTAIAEGLAWRIVQGDVPEVMADCTIYSLDIGSLLAGTKYRGDFEKRFKALLKQLEQDTNSILFIDEIHTIIGAGAASGGQVDAANLIKPLLSSGKIRVIGSTTYQEFSNIFEKDRALARRFQKIDITEPSIEETVQIINGLKPKYEAHHDVRYTAKAVRAAVELAVKYINDRHLPDKAIDVIDEAGARARLMPVSKRKKTVNVADIESVVARIARIPEKSVSQSDRDTLKNLGDRLKMLVFGQDKAIEALTEAIKMARAGLGHEHKPVGSFLFAGPTGVGKTEVTVQLSKALGIELLRFDMSEYMERHTVSRLIGAPPGYVGFDQGGLLTDAVIKHPHAVLLLDEIEKAHPDVFNILLQVMDNGTLTDNNGRKADFRNVVLVMTTNAGVRETERKSIGLIHQDNSTDAMEEIKKIFTPEFRNRLDNIIWFDHLSTDVIHQVVDKFIVELQVQLDQKGVSLEVSQEARNWLAEKGYDRAMGARPMARVIQDNLKKPLANELLFGSLVDGGQVTVALDKEKNELTYGFQSAQKHKAEAAH
chain 2: MAEEKVRDALKPPSMYKVILVNDDYTPMEFVIDVLQKFFSYDVERATQLMLAVHYQGKAICGVFTAEVAETKVAMVNKYARENEHPLLCTLEKA
Q: With B4 as the molecule, how does the “K2 (unimolecular engagement step, global fit)” value (ClpAP; YLFVQELA-GFP degradation, Vmax = Etotal•kdeg/(1+K2), KM = K1•K2/(1+K2)) read?
A: Its value is 9.2.

Q: What about the “steady-state degradation kinetics, in words” value (ClpAP; YLFVQELA-GFP, 100 nM ClpA6, 200 nM ClpP14, 600 nM ClpS or variants) of the same molecule?
A: Its value is “substantial decrease in Vmax”.

Q: What about the “reduction in Vmax compared to ClpS, fold” value (ClpAP; YLFVQELA-GFP, 100 nM ClpA6, 200 nM ClpP14, 600 nM ClpS variant) of the same molecule?
A: The value was 7.5 fold.

Q: What about the Kd [4] of the same molecule?
A: Its Kd is 130 nM.

B5: E. coli ClpS residues 2-106 (crystals of Schuenemann et al., 2009, re-refined here) (natural protein, UniProt P0A8Q6 2-106, looked up)
chain: GKTNDWLDFDQLAEEKVRDALKPPSMYKVILVNDDYTPMEFVIDVLQKFFSYDVERATQLMLAVHYQGKAICGVFTAEVAETKVAMVNKYARENEHPLLCTLEKA
Q: Does B5 bind (crystal structure)?
A: Result: binds
